The values below come from patent US20240325557A1 (INNATE PHARMA, published 2024).

Test [1] deals with T1, Rat Nectin-4 on CHO cells (rat, UniProt Q8R007 31-508 (mouse entry)).
T1 chain: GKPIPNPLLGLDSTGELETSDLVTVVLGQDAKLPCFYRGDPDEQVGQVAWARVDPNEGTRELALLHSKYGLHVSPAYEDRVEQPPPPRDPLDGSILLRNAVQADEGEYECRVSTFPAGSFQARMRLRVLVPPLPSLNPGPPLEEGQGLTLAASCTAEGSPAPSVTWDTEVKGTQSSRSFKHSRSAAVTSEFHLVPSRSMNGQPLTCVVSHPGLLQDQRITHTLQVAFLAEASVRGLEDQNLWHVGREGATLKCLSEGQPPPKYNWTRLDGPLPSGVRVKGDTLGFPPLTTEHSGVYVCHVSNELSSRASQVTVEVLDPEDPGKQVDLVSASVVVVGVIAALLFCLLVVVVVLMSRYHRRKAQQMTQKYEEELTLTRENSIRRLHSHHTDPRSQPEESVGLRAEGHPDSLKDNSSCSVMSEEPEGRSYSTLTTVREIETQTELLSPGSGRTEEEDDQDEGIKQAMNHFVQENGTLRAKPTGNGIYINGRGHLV
The experiment in a line: flow cytometry titration on CHO cells expressing rat Nectin-4, median MFI (PE). In general terms: Flow cytometry measures light scatter and fluorescence of single cells or particles in a stream.

The target of test [2] is T2, wild-type human Nectin-4 on the CHO huNectin4 Cl.3C8 cell line (human, UniProt Q96NY8 32-510).
T2 construct: also called whole Nectin-4 protein; huNectin4 CI.3C8
T2 sequence: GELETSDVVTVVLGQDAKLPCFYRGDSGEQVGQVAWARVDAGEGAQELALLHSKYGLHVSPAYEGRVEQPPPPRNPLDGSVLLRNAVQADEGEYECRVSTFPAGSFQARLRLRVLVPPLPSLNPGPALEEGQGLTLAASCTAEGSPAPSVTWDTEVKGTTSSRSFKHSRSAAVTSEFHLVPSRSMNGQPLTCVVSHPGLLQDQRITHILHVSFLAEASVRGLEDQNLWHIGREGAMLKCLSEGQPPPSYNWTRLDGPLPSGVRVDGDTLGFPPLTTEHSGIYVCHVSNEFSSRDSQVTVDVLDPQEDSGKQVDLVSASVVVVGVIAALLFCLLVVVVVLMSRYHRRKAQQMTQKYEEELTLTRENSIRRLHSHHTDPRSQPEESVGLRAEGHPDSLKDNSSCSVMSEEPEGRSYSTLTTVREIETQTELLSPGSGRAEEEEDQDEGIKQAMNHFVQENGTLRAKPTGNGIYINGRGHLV
In words: flow cytometry titration on CHO cells expressing wild-type human Nectin-4 (huNectin4), median MFI. Here is the method: The characterization of the binding of the antibodies on Nectin-4 domains was performed by flow cytometry using cells made to express the wild-type human Nectin-4 protein and cells made to express a modified Nectin-4 having the Ig-like C₂ type 1 and the Ig-like C₂ type 2 domains and lacking the Ig-like V domain (the C1C2 construct). The latter protein additionally bears a V5 tag for flow cytometry cell sorting, and cells were used as Nectin4-C1C2-V5 sorted cells.

For test [3], the target named is T3, huNectin4-C1C2-V5 (C1C2 construct, lacking the Ig-like V domain) (human, UniProt Q96NY8 148-510).
T3 construct: Expressed on CHO cells; also called Hu-Nectin4 IgC1C2-V5; Nectin4-C1C2-V5 sorted cells
T3 sequence: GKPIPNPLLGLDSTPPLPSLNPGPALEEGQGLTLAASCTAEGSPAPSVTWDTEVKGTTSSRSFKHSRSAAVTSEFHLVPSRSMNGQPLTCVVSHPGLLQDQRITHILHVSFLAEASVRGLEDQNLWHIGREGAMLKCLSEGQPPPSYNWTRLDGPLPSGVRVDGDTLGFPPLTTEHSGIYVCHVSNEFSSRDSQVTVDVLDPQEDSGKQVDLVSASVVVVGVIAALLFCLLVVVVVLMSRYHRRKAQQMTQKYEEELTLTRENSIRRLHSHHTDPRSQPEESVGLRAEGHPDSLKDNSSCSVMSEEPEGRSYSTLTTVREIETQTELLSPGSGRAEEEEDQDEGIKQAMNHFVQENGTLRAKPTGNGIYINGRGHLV
The experiment in a line: flow cytometry titration on Hu-Nectin4 IgC1C2-V5 sorted cells (row label printed IC50).

Test [4] concerns the target T4, human Nectin-4 Mutant 7bis (human, UniProt Q96NY8 32-510).
T4 construct: Expressed on transfected HEK-293T cells; also called A72P/G73N/K197T/S199A
T4 chain: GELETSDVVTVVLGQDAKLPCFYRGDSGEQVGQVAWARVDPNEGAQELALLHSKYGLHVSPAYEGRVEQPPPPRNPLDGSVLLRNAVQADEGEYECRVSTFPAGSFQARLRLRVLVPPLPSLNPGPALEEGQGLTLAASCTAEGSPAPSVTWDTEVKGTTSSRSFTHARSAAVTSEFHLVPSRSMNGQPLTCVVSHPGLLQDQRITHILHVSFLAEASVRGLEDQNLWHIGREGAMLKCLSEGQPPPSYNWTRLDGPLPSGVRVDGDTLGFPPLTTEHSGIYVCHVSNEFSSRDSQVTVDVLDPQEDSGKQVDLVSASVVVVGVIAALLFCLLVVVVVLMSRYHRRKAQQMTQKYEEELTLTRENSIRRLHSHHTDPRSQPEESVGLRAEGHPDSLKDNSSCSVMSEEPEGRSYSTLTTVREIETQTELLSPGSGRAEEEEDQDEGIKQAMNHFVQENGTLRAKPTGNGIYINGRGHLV
The experiment in a line: binding to HEK-293T cells transfected with the Nectin-4 mutant.

A further test concerns the target T5, human Nectin-4 Mutant 7 (human, UniProt Q96NY8 32-510).
T5 construct: Expressed on transfected HEK-293T cells; also called S195A/K197T/S199A
T5 chain: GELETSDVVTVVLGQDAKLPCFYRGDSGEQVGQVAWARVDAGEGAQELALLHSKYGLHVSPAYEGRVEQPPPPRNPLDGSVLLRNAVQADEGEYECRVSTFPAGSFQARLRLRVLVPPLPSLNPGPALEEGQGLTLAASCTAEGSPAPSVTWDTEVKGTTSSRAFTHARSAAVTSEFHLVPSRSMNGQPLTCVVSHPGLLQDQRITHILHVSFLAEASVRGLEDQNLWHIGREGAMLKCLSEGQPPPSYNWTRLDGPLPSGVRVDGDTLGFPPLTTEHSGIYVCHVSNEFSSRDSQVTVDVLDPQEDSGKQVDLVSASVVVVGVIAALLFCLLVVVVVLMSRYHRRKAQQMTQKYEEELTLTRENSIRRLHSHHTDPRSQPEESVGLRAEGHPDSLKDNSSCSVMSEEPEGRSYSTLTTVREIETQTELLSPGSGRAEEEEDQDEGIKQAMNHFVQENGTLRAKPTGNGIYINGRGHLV
The description is as above.

The target of test [5] is T6, Mouse Nectin-4 on CHO cells (mouse, UniProt Q8R007 32-508).
T6 construct: also called mouse Nectin 4 protein
T6 sequence: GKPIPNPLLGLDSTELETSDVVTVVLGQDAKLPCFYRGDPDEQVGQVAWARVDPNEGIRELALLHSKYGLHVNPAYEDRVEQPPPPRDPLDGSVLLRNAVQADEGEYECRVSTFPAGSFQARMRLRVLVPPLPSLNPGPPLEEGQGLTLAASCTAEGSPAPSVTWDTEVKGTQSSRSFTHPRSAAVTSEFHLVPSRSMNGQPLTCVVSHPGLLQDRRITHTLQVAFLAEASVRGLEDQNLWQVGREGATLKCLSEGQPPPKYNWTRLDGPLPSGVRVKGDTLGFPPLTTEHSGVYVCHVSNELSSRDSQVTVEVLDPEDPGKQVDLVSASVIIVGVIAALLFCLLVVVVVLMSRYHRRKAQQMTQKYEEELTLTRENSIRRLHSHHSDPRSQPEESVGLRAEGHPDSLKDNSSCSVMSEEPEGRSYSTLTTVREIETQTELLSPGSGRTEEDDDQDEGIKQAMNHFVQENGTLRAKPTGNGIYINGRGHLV
In words: flow cytometry on CHO cells expressing mouse Nectin-4.

Test [6] addresses T7, monomeric huNectin4-his-BirA protein (human, UniProt Q96NY8 32-349).
T7 construct: also called Human Nectin4-His-BirA; huNectin4-BirA
T7 sequence: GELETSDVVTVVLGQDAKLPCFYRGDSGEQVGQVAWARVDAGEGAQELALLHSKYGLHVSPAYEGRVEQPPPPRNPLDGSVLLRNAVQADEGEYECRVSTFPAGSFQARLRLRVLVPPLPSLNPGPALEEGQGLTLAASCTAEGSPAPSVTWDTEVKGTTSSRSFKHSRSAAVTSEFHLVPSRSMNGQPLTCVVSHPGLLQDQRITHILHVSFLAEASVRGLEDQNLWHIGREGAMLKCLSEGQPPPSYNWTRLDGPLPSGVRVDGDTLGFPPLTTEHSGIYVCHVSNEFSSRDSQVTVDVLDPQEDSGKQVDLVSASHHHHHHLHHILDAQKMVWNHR
In words: SPR (Biacore T200), antibody captured on Protein A, monomeric huNectin4-his-BirA injected. Here is the method: Antibodies were tested for binding affinity to the wild-type human Nectin-4 protein by SPR (Surface Plasmon Resonance) methods. Measurements were performed on a Biacore T200 apparatus (Biacore GE Healthcare) at 25° C. Sensorgrams were analyzed with Biacore T100 Evaluation software. A CMR Sensor Chip with immobilized Protein A at about 600 RU was used. Anti-Nectin-4 antibodies were captured onto the Protein-A chip (antibodies diluted to 1 μg/ml in HBS-EP+1× buffer and injected over 120s at 40 μL/min). […] The chip was regenerated with NaOh 10 mM 2× for 30s at 40 μl/min. The sensorgram sets were fitted using the 1:1 kinetic binding model or two state reaction model, as a function of the profile of the curves.
(Surface plasmon resonance follows binding to a sensor surface in real time, without labels.)

B1: Enfortumab (ASG-22ME) (antibody, V domains shown)
VH: EVQLVESGGGLVQPGGSLRLSCAASGFTFSSYNMNWVRQAPGKGLEWVSYISSSSSTIYYADSVKGRFTISRDNAKNSLSLQMNSLRDEDTAVYYCARAYYYGMDVWGQGTTVTVSS
VL: DIQMTQSPSSVSASVGDRVTITCRASQGISGWLAWYQQKPGKAPKFLIYAASTLQSGVPSRFSGSGSGTDFTLTISSLQPEDFATYYCQQANSFPPTFGGGTKVEIKR
The EC50 (read off the curve) is the midpoint of the concentration-response curve. Lower therefore signals a more potent agent. For the molecule B1, the “EC50 (read off the curve)” value in test [1] was ~0.2 µg/mL.

B2: mAb3 (antibody, V domains shown)
VH: EVQLVESGGGLVQPGGSLRLSCAASGFTFSSYNMNWVRQAPGKGLEWVSYISSSSSTIYYADSVKGRFTISRDNAKNSLSLQMNSLRDEDTAVYYCARAYYYGMDVWGQGTTVTVSS
VL: DIQMTQSPSSVSASVGDRVTITCRASQGISGWLAWYQQKPGKAPKFLIYAASTLQSGVPSRFSGSGSGTDFTLTISSLQPEDFATYYCQQANSFPPTFGGGTKVEIKR
A word on the EC50: it is the concentration that produces a half-maximal response. Read a low EC50 as a more potent agent. In the case of B2, the “EC50 (read off the curve)” value in test [2] was ~0.2 µg/mL. Further, in test [3], a half-maximal effect (EC50) was put at 0.156 µg/mL.

B3: antibody 5E7 (antibody, human IgG1, V domains shown)
VH: QVQLQQPGAELVKPGASVKLSCKASGYIFTSYWMHWVKQRPGQGLEWIGEIDPSDSYTNYNQKFKGKATLTLDKSSSTTYMQLSSLTSEDSAVYYCVRGYGNYGDYWGQGTTLTVSS
VL: DVVMTQAAFSNPVTLGTSASISCRSSKSLLHSNGITYLYWYLQKPGQSPQLLIYQMSNLASGVPDRFSSSGSGTDFTLRISRVEAEDVGVYYCAQNLELPWTFGGGTKLEIK
notes: Mouse variable domains; also called mAb6; Mab6
The Kd is a measure of binding affinity in units of concentration. A low value points to tighter binding. Broadly, the koff is the rate constant with which the complex falls apart. Low values mean a long-lived complex, high ones a short-lived complex. The term kon denotes the rate constant with which the complex forms. High values mean faster complex formation, low ones slower complex formation. Regarding B3, the binding result in test [4] was “no binding”. In the test with human Nectin-4 Mutant 7, the binding result is listed as “no binding”. In test [5], the binding result is “no binding”. In test [6], binding was put at a Kd of 4.8 nM, the dissociation rate constant (koff) is 0.003 s⁻¹ and the kon worked out at 620000 M⁻¹ s⁻¹. Further, the “EC50 (read off the curve)” value in test [2] is ~0.05 µg/mL. In test [3], this molecule displayed a 50% effective concentration (EC50) of 0.0524 µg/mL.

B4: antibody 10B12 (antibody, human IgG1, V domains shown)
VH: QVQLQQPGAELVKPGASVKLSCKASGYTFTSYWMHWVKQRPGQGLEWIGEIDPSDSYTNYNQKFKGKATLTVDKSSSTAYMQLSSLTSEDSAVYYCVRGYGNYGDYWGQGTTLTVSS
VL: DIVMTQAAFSNPVTLGTSASISCRSSKSLLHSNGITYLYWYLQKPGQSPQLLIYQMSNLASGVPDRFSSSGSGTDFTLRISRVEAEDVGVYYCAQNLELPWTFGGGTKLEIK
notes: Mouse variable domains; also called mAb7; Mab7
Regarding B4, in test [4], the binding result is “no binding”. For the same molecule, the binding result with human Nectin-4 Mutant 7 is “no binding”. The binding result in test [5] was “no binding”. Besides, in test [6], binding was put at a Kd of 12 nM, the koff was found to be 0.01 s⁻¹ and the kon was 860000 M⁻¹ s⁻¹. Also, in test [2], the “EC50 (read off the curve)” value is ~0.02 µg/mL. This molecule also displayed a half-maximal effective concentration (EC50) in test [3] of 0.0197 µg/mL.
